Target: F-actin of ghost muscle fibres (rabbit (endogenous in m. psoas fibres)) (UniProt P68135)
Experiment: fluorescence intensity of labelled proteins bound in ghost muscle fibres; actin-Tpm-S1 complexes in ghost fibres; rigor (no nucleotide) or MgADP; with MgATP the ratio of S1 to actin was reduced
Conditions: for stoichiometry N: scale: actin per tropomyosin

Sequence of myosin subfragment-1 (P02602 whole entry, looked up, the tested form may be a part): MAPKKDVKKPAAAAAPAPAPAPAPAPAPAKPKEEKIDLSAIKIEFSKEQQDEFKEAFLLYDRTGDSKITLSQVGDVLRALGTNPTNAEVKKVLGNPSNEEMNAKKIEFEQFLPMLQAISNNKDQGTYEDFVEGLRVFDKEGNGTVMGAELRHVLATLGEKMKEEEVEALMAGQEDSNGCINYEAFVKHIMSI
Sequence of recombinant wild-type γ-tropomyosin (Tpm3.12) (natural protein) (Q5KR47 whole entry): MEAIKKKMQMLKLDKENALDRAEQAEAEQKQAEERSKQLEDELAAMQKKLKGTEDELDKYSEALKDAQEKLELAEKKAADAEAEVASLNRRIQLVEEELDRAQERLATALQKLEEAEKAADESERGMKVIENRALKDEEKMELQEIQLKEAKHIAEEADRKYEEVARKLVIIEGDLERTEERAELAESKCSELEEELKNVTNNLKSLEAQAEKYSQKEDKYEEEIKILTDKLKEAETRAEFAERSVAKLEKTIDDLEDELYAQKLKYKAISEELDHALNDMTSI

Row | stoichiometry N | stoichiometry N (actin per S1 (molar ratio 1:2.4)) | Substance
1 | 7 | – | E173A mutant γ-tropomyosin (Tpm3.12) (natural protein)
2 | – | 2.4 | myosin subfragment-1 (from UniProt P02602 1-192) (complex)
3 | 7 | – | recombinant wild-type γ-tropomyosin (Tpm3.12) (natural protein)

— publication PMC7352912
